Assays:
[1] = molecular target: T1, Lys48-linked UB chains (Ub2-7) (UniProt P0CG48 1-76, isopeptide bond between the C-terminus of the distal UB and Lys48 of the proximal UB); assay: GST pull-down, immunoblot
T1 construct: Bought mixture of chain lengths Ub2-7; also called K48-linked UB chains; K48-linked ubiquitin chains
Excerpt: (§1) The GST pull-down assay and the detection of pulled-down products by immunoblotting has been previously described (Fatimababy et al., (2010) FEBS J. 277, 796-816; Lin et al., (2011) Plant Cell 23, 2754-2773). The Lys48- and Lys63-linked UB chains (Ub2-7) were purchased from Boston Biochem.

[2] = molecular target: T2, Lys63-linked UB chains (Ub2-7) (UniProt P0CG48 1-76, isopeptide bond between the C-terminus of the distal UB and Lys63 of the proximal UB); assay: GST pull-down, immunoblot
T2 construct: Bought mixture of chain lengths Ub2-7; also called K63-linked UB chains; K63-linked ubiquitin chains
Excerpt: as §1

| binding result [1] | binding result [2] | Binder |
| --- | --- | --- |
| no binding | no binding | GST-OTU9 (enzyme, Full-length coding region in pET42, expressed in E. coli; also called OTU9 (GST fusion); not shown: GST and His tags from pET42 vector) MGYEPDPDALRWGLHDLEVCTLTNAGSCSSVTRYESGGGGTQGYVREGYNQPVTGYVDNDAVIAQFYQDELSRVARAEASGINSLSPTSVVAQDWPHPHQGQENQGEAIDITQESDILHNHNGNMEDKNVARIRFEGGQSSPSRDDDSVCSVEIEEESWSEVGKRLNQMIPIAHVPKINGELPSEDEQISDHERLFQRLQLYGLVENKIEGDGNCQFRSLSDQLYRSPEHHNFVREQVVNQLAYNREIYEGYVPMAYNDYLKAMKRNGEWGDHVTLQAAADLFGVRMFVITSFKDTCYIEILPHFQKSNRLICLSFWAEVHYNSIYPEGELPIPEGKKKKKYWVF |
| no binding | no binding | GST-OTU7a (enzyme, Full-length coding region in pET42, expressed in E. coli; also called OTU7a (GST fusion); not shown: GST and His tags from pET42 vector) MAKTKQQKSKPKKQPHQKQGKDCDLSQFRAQLDALGLKIIQVTADGNCFFRAIADQLEGNEDEHNKYRNMIVLYIVKNREMFEPFIEDDVPFEDYCKTMDDDGTWAGNMELQAASLVTRSNICIHRNMSPRWYIRNFEDTRTRMIHLSYHDGEHYNSVRSKEDACGGPARPVVIEADAKVSAASKQAKATESKSKNKADKCHVNAGAIKVVMSGSCCDNTEKAEQVLLQVNGDVDAAIEFLIADQGMESLTENDTETASASDTINPKHASDSPMENTEQAREELIEEESASGNNSETVQAKCTTQTDDKKIPRNKTCPCGSKKKYKSCCGTATGRSSVKLLVSQTMESKKGRKNLRRGTSNEVEANAPDVGALCI |
| no binding | no binding | GST-OTU3 (enzyme, Full-length coding region in pET42, expressed in E. coli; also called OTU3 (GST fusion); not shown: GST and His tags from pET42 vector) MELKSSSNNNILEQLRNGFARFELVSSPTASVSDSISSTSLPASFISTTKGNSYVFFARINSSMNRSPAAKKVEKYAVDRVKGDGRCLFRALVKGMAFNKGITLNPQRERDDADELRMAVKEVICNDPKEREKYKEALVAITVDESLKRFCQRIGRHDFWGGESELLVLSKLCKQPIIVYIPEHEHGRGGGYGPGFIPIQEYGSEFRGGWGKGKTNKNVVRLLYSGRNHYDLLR |
| no binding | no binding | GST-OTU4c (enzyme, Full-length coding region in pET42, expressed in E. coli; also called OTU4c (GST tag); not shown: GST and His tags from pET42 vector) MMICYSPITTCSRNAISIKRHLGSRLYGVVAHGSSKFSCYSLLSGLSRRHYTGFRVSVSNRPSSWHDKGLFGFAYTGVIVSLLVCYSSTSQSAYADSSRDKDANNVHHHSSDGKFHNGKRVYTDYSIIGIPGDGRCLFRSVAHGFCLRSGKLAPGEKMQRELADELRTRVADEFIQRRQETEWFVEGDFDTYVRQIRDPHVWGGEPELFMASHVLQMPITVYMKDDKAGGLISIAEYGQEYGKDDPIRVLYHGFGHYDALLLHESKASIPKSKL |
| no binding | no binding | GST-OTU10 (enzyme, also called OTU10 (GST tag); not shown: GST and His tags from pET42 vector) MVSHEENTSIVEWFLGPHPYTYPPYGIEMIHEDDEVAVAHHHHHHQSGEYYREYEDHRSSDVDNDEIIARTLQDDFLQLEIAESNDYSHQNQQQQHQQEGYTNNYSNNNNGYAWNDQSPAVDYSSEWIGNDNDQDGRSDDSVNVFSCSSPSDTDEYVYSWESDQCDADGEFGRRLNQMVPIPYIPKINGEIPPEEEAVSDHERLRNRLEMFDFTEVKVPGDGNCQFRALADQLYKTADRHKHVRRQIVKQLKSRPDSYQGYVPMDFSDYLRKMSRSGEWGDHVTLQAAADAYRVKIVVLTSFKDTCYIEILPTSQESKGVIFLSFWAEVHYNAIYLNRDTSETELQRKRKWWRFGN |

From patent US20150353909A1 (ACADEMIA SINICA, published 2015)
